{
  "source": "paper PMC4005879",
  "about": "(Bioorganic & medicinal chemistry letters, 2014)",
  "key": {"[1]": {"target": "capsid assembly inhibitor (CAI) peptide", "assay": "ITC"}, "[2]": {"target": "HIV capsid protein p24 CTD (Human immunodeficiency virus 1) (UniProt O93182)", "settings": "cited from earlier work"}, "HIV-1 [3]": {"system": "HIV-1", "settings": "read-out: MT-2 cells IC50, multi-cycle infection assay, ref [8]; cited from earlier work"}, "HIV-1 [4]": {"system": "HIV-1", "settings": "read-out: TZM-b1 cells IC50; single-cycle assay, TZM-bl cells; ref [8]; cited from earlier work"}},
  "note": "Read-outs that look alike come from different tables or passages of the source.",
  "data": [
    {"substance": "C-terminal domain (CTD) of the HIV capsid protein p24, M184A/W185A (domain or fragment)", "values": [
      {"measurement": "Kd", "setting": "[1]", "value": 8.3, "unit": "µM"},
      {"measurement": "dH", "setting": "[1]", "value": -9.45, "unit": "kcal/mol"},
      {"measurement": "stoichiometry N", "setting": "[1]", "value": 0.98}
    ]},
    {"substance": "CAI", "values": [
      {"measurement": "Kd", "setting": "[2]", "value": 15, "unit": "µM"}
    ]},
    {"substance": "ISFR8ELLDYYS5ESGS (sidechain bridge or staple) [NYAD-36]", "values": [
      {"measurement": "IC50", "setting": "HIV-1 [3]", "value": "1.5 ± 0.17", "unit": "µM"},
      {"measurement": "IC50", "setting": "HIV-1 [4]", "value": "2 ± 0.4", "unit": "µM"}
    ]}
  ]
}
